Like-named read-outs stand apart in the source and are kept apart here.
How the values were obtained:
actin filaments [1] = biological target: T1, actin filaments (rabbit, UniProt P68135 1-377); experiment: co-sedimentation
[2] = biological target: the molecule itself; experiment: two-color TIRF microscopy
[3] = biological target: the molecule itself; experiment: two-color TIRF microscopy; remark: listed apart in the source
actin filaments [4] = biological target: T1, actin filaments; experiment: co-sedimentation; remark: listed apart in the source

B1: INF2-FFC (domain or fragment)
chain: not shown
- stoichiometry N (actin filaments [1]): 1 INF2 monomer:actin monomer

B2: GFP-INF2-FFC (domain or fragment)
chain: not shown
- stoichiometry N [2]: 2.06 molecules
- stoichiometry N [3]: 2.17 molecules

B3: INF2-FF (domain or fragment)
chain: not shown
- fold lower affinity than INF2-FFC (actin filaments [4]): 5 fold

Source: paper PMC3992431 (Current biology : CB, 2014)
